Assay results published in US6649744B1, “Rnase P polypeptides, polynucleotides, and methods using their mechanisms of action” (SmithKline Beecham Corporation, priority 1999, dated 2003).
Like-named read-outs stand apart in the source and are kept apart here.

B1: SP RNA: S. aureus RNase P catalytic RNA component, transcribed in vitro from plasmid pSPR with T7 RNA polymerase; gene SEQ ID NO:3 (nucleic acid, listed as Staphylococcus aureus)
DNA: GTTCTGATATTTTGGGTAATCGCTATATTATATAGAGGAAAGTCCATGCTCACACAGTCTGAGATGATTGTAGTGTTCGTGCTTGATGAAACAATAAATCAAGGCATTAATTTGACGGCAATGAAATATCCTAAGTCTTTCGATATGGATAGAGTAATTTGAAAGTGCCACAGTGACGTAGCTTTTATAGAAATATAAAAGGTGGAACGCGGTAAACCCCTCGAGTGAGCAATCCAAATTTGGTAGGAGCACTTGTTTAACGGAATTCAACGTATAAACGAGACACACTTCGCGAAATGAAGTGGTGTACGACAGATGGTTATCACCTGAGTACCAGTGTGACTAGTGCACGTGATGAGTACGATGGAACAGAACATGGCTTATAGAAATATCACTACTA
modifications: RNA transcript of gene
B2: S. aureus RNase P protein: 117 amino acid translation product of the S. aureus spp gene, SEQ ID NO:2, expressed as MBP fusion and cleaved (protein, listed as Staphylococcus aureus)
chain: MLLEKVYRIKKNADFGRIYKKGHSVANRQFVVYTCNNKEIDHFRLGISVSKKLGNAVLRNKIKRAIRENFKVHKSHILAKDIIVIARQPAKDMTTLQIQNSLEHVLKIAKVFNKKIK

How the values were obtained:
p6AT-1 = experiment: Cleavage of minimal substrate p6AT-1 by RNase P RNA or holoenzyme (gel, autoradiography); assay type: biochemical
Description: The chemically synthesized 42nt RNA molecule p6AT-l was 5′ end-labeled with high specific activity [γ-^32p] ATP ([…]) using bacteriophage T4 polynucleotide kinase. The labeling was performed in a 10 μl reaction at 37° C. for 30 min. The enzyme was heat-inactivated at 95° C. for 2 min. To remove salts, unincorporated nucleotides and the enzyme, p6AT-1 was gel purified from a 20% polyacrylamide TBE gel with 7M urea. The RNA was extracted from the gel slice and precipitated with 300 mM NaOAc and 2.5 volumes 100% ethanol. After a spin at 14,000 g and 4° C. the RNA pellet was washed twice with chilled 70% ethanol. The pellet was air dried and subsequently resuspended in 50 μl water. 0.5 μl were spotted onto a filter paper disk and counted in a scintillation counter (Cherenkov analysis).
(§1) E. coli M1 RNA is able to cleave ptRNA^met or the minimal substrate p6AT-1 in 100 mM NH4Cl, 100 mM TrisCl pH 7.5, 100 mM MgCl2. The conditions for cleavage of either substrate by S. aureus SP RNA were unknown and clearly deviated from those optimized for E. coli. A large number of different buffer conditions were investigated in order to determine optimal buffer conditions for either substrate cleavage by the S. aureus ribozyme.
(§2) Cleavage reactions (20 μl) were all performed at 37° C. for 30 min with 100 nM SP RNA and an additional 200 nM SP protein in the holoenzyme reactions. Substrates (ptRNA^met or p6AT-1) were added in trace amounts (single-turnover reactions). Cleavage was monitored by size resolution of the intact precursor and the cleaved leader sequence by denaturing gel elctrophoresis and autoradiography or visualization on the phosphorimager (Molecular Dynamics Storm 860).

S. aureus pre-tRNA^phe = experiment: RNase P kinetics (Michaelis Menten) with cloned pre-tRNAphe as substrate; assay type: biochemical; conditions: 50 mM Tris pH8.0, 1 M NH4Cl, 200 mM MgCl2, 5% PEG
Description: A cloned pre-tRNA^phe was used as a substrate for kinetic characterizations for both the holoenzyme and RNA only reactions.
RNase P RNA-only kinetics in the following buffer: 50 mM Tris, pH8.0, 1 M NH4Cl, 200 mM MgCl2, and 5% PEG. […] In both experiments, a cloned pre-tRNA^phe was used as substrate.

E. coli ptRNA^met = experiment: Cleavage of ptRNAmet by RNase P RNA or holoenzyme (gel, autoradiography); assay type: biochemical; conditions: 100 mM TrisCl pH8, 100 mM MgCl2, 5% PEG
Description: E. coli ptRNA^met, a substrate for RNase P, was transcribed in vitro by T7 RNA polymerase (Epicenter) in the presence of [α-32P] UTP to internally label the RNA. The DNA template pGem3Z-ptRNA was linearized with BstNI restriction endonuclease to allow run-off transcription. The transcription was performed in a 20 μl reaction at 37° C. for 60min. To remove unincorporated nucleotides the 93 nt RNA (sequence shown below) was cleaned under non-denaturing conditions using a CLONTECH Chroma-Spin 10 column. To calculate the specific activity of the RNA probe, 1 μl samples were removed before and after cleaning, mixed with 5 ml scintillation cocktail and counted in a scintillation counter. ptRNAmet in pGem-3Z, sequence of the transcript (93mer) 5′→3′ [SEQ ID NO: 12]: GGGCGAAUUCGCCUCGGCUACGUAGCUCAGUUGGUUAGAGCACAUCACUCAUAAUGAUGGGGUCACAGGUUCGAAUCCCGUCGUAGCCACCAG
as §1, §2

S. aureus RNase P RNA = experiment: Filter binding / gel-shift assay of RNase P protein to RNase P RNA
Description: The RNase P RNA/protein interactions were investigated by gel mobility shift and filter binding experiments.
Binding isotherm of RNase P RNA obtained by filter binding assay was asswssed. The 3′-end labeled RNA was mixed with the protein in the binding buffer containing 20 mM K-Hepes, pH8.0, 0.01% NP-40, 400 mM NH4OAc, 10 mM MgCl2, and 5% glycererol. The Kd value was generated by fitting the data with Grafit 4 one-site ligand binding equation: % binding=plateau/(1+Kd/[S. aureus protein]).

| Molecule | p6AT-1 cleavage (p6AT-1; 10 mM MgCl2, 2M KCl, 100 mM TrisCl pH8, 5% PEG) | p6AT-1 cleavage (p6AT-1; 1M KCl or NH4Cl, 100 mM TrisCl pH7.5, 100 mM MgCl2) | p6AT-1 cleavage, maximal level (p6AT-1; 1.5M KCl, 100 mM TrisCl pH8, 100 mM MgCl2, 5% PEG, 37° C. 30 min, 100 nM SP RNA) | p6AT-1 cleavage (p6AT-1; KCl below 400 mM, 100 mM TrisCl pH8, 100 mM MgCl2, 5% PEG) | pre-tRNAphe processing, RNA-only (S. aureus pre-tRNA^phe) | ptRNAmet substrate processed (E. coli ptRNA^met; 150 mM KCl) | ptRNAmet substrate processed (E. coli ptRNA^met; 800 mM KCl) | ptRNA cleaved (E. coli ptRNA^met; KCl 1M or above) | Kd (S. aureus RNase P RNA; 20 mM K-Hepes pH8.0, 0.01% NP-40, 400 mM NH4OAc, 10 mM MgCl2, 5% glycererol, 3′-end labeled RNA, read-out: Kd, filter binding isotherm) | Kd (S. aureus RNase P RNA; filter binding and gel-shift assays, read-out: binding constant of the complex) |
| --- | --- | --- | --- | --- | --- | --- | --- | --- | --- | --- |
| B1 | No cleavage | hardly any cleavage product detectable | 27% | No cleavage | efficiently processed | more than 50% | 82% | 85% | – | – |
| B2 | – | – | – | – | – | – | – | – | 8 ± 1 nM | 20 nM |
